Source: publication PMC6449940, “The Cdc42 effectors Gic1 and Gic2 regulate polarized post-Golgi secretion” (Cell & Bioscience, 2019)

Molecular target: T1, His6-Cdc42 (S. cerevisiae, UniProt P19073 1-191)
T1 construct: Cdc42, small GTPase, S. cerevisiae; also called Hisx6-Cdc42; Cdc42 wild type; source: bacteria, purified (Hisx6 fusion)
Assay: pull-down; GST-Sec3N (a.a.71–241) on glutathione Sepharose (20 μg), His6-Cdc42 or mutant (10 μg) in the presence of GTPγS; bound protein detected with anti-Hisx6 antibody
Conditions: both partners purified

T1 sequence (P19073 whole entry, the tested form may be a part): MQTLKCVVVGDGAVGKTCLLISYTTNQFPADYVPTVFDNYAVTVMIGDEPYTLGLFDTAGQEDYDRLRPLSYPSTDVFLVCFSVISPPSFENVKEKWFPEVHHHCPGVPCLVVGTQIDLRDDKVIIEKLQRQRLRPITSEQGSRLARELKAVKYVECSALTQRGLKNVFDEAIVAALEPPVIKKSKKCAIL

B1: GST-Sec3N (a.a.71–241) (domain or fragment, S. cerevisiae (budding yeast), UniProt P33332 71-241, looked up)
chain: SSQTSNFLAEQYERDRKAIINCCFSRPDHKTGEPPNNYITHVRIIEDSKFPSSRPPPDSKLENKKKRLLILSAKPNNAKLIQIHKARENSDGSFQIGRTWQLTELVRVEKDLEISEGFILTMSKKYYWETNSAKERTVFIKSLITLYIQTFEGHVPELVNWDLSLFYLDER
notes: Sec3, exocyst subunit, budding yeast, residues 71-241 (N-terminus, PH domain-like region); also called Amino-terminus of Sec3 (a.a.71–241); source: GST fusion protein, purified and conjugated to glutathione Sepharose
binding result: binds
